Measured values reported in patent US20060127985A1 (IMMUNEX, published 2006).

Experiments:
[1] = biological target: T1, human 4-1BB ligand (4-1BB-L), cell surface (human, UniProt P41273 1-254); assay: slide autoradiography on transfected CV-1 cells
T1 construct: Native on the anti-CD3-stimulated PL1 (PL-1) T cell clone, the source of the cDNA; Recombinant full length on transfected CV-1/EBNA cells; also called hu4-1BB-L; clone 7A

[2] = biological target: T2, murine 4-1BB ligand (4-1BB-L), cell surface (murine, UniProt P41274 1-309); assay: Scatchard analysis, 125I-4-1BB/Fc binding to EL4 6.1C10 cells
T2 construct: Native on EL4 6.1C10 and EL4 6.1 thymoma cells, the source of the cDNA; Recombinant full length on transfected COS and CV-1 cells; also called mu4-1BB-L; native surface mu4-1BB-L
T2 sequence: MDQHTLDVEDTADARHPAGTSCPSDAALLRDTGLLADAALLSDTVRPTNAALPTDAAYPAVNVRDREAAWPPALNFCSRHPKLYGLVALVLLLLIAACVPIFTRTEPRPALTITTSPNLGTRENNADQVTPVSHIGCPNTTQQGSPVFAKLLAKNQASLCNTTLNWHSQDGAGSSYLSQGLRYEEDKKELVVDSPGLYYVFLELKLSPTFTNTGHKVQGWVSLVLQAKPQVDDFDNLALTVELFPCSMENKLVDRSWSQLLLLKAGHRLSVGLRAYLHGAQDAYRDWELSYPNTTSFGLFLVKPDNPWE
Protocol: Several cell lines were screened for the ability to bind the radioiodinated murine 4-1BB/Fc fusion protein described in Example 1. Briefly, quantitative binding studies were performed according to standard methodology, and Scatchard plots were derived for the various cell lines. […] The EL4 6.1C10 cell line was derived from a subclone designated EL4 6.1 by using a cell sorter to enrich for a cell population expressing high levels of murine type I Interleukin-1 receptor, as described in U.S. Pat. No. 4,968,607. EL4 6.1 had been derived from a mouse thymoma cell line EL-4 (ATCC TIB39) as described by MacDonald et al. (J. Immunol. 135:3944, 1985) and Lowenthal and MacDonald (J. Exp. Med. 164:1060, 1986).

T1 sequence (P41273 whole entry): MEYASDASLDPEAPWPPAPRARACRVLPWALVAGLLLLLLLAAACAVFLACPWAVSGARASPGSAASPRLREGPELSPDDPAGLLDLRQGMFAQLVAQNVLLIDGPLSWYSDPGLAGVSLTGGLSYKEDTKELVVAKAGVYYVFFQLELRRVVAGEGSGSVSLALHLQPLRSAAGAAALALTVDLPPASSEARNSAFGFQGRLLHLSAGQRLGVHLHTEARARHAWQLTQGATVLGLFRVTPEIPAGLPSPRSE

binding result [1]: no binding
Ka [2]: ~2e+09 M⁻¹
B1: murine 4-1BB/Fc fusion protein (Fc fusion)
chain: VQNSCDNCQPGTFCRKYNPVCKSCPPSTFSSIGGQPNCNICRVCAGYFRFKKFCSSTHNAECECIEGFHCLGPQCTRCEKDCRPGQELTKQGCKTCSLGTFNDQNGTGVCRPWTNCSLDGRSVLKTGTTEKDVVCGPPVVSFSPSTTISVTPEEPRSCDKTHTCPPCPAPELLGGPSVFLFPPKPKDTLMISRTPEVTCVVVDVSHEDPEVKFNWYVDGVEVHNAKTKPREEQYNSTYRVVSVLTVLHQDWLNGKDYKCKVSNKALPAPMQKTISKAKGQPREPQVYTLPPSRDELTKNQVSLTCLVKGFYPRHIAVEWESNGQPENNYKTTPPVLDSDGSFFLYSKLTVDKSRWQQGNVFSCSVMHEALHNHYTQKSLSLSPGK
modifications: 125I-radioiodinated where used as tracer
notes: The murine IL-7 leader of the vector is cleaved on secretion; Fc is joined through the BglII site; also called mu4-1BB/Fc; soluble murine 4-1BB/Fc
